Data taken from US20100099103A1.

Molecular target: human TNF (hTNF) (human) (UniProt P01375)
Assay: method not stated (free scFv protein; titration curves in FIG. 11)

UniProt P01375, sequence (P01375 77-233 limits assumed): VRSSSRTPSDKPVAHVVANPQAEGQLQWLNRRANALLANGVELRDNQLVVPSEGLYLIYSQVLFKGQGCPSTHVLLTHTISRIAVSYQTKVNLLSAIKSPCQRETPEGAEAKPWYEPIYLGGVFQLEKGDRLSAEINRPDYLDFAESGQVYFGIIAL

Kd: 200 nM
Substance: 2SD4 scFv (D2E7 scFv precursor), free protein
